Source: article PMC6377406

Target: ΔN-PINK1-GFP (UniProt Q9BXM7)
Assay: co-IP; GFP IP (μMACS Epitope Tag Protein Isolation kit) of lysates of transfected HEK293 cells; immunoblot

Sequence of UniProt Q9BXM7 (Q9BXM7 78-581, stated change not applied): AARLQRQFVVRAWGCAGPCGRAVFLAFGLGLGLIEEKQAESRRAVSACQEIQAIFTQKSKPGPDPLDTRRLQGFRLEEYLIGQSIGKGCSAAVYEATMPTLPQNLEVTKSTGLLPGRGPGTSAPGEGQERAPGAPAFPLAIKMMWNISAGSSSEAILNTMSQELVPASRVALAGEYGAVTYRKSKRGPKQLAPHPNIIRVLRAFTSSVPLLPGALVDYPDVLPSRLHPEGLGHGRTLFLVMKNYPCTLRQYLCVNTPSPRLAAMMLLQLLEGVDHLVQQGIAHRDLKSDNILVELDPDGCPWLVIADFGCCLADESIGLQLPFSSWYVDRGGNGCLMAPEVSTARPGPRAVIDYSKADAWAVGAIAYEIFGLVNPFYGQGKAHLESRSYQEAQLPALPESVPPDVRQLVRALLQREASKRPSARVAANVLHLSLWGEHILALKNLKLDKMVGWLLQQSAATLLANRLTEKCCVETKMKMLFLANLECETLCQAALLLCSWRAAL

“valosin-containing protein (VCP), endogenous in HEK293 cells (from UniProt P55072 1-806) (natural protein)” was tested. Which fold of VCP pulled down against OMM-PINK1-GFP did it give?
The fold of VCP pulled down against OMM-PINK1-GFP was 4 fold.
